These results are taken from patent US20080044360A1 (COLLAGEN MEDICAL, published 2008).

Bridge positions count the residues as written; N and C are the ends. Square brackets hold non-standard residues; d marks the D form. Primed or numbered codes have the meaning given here. Ends that are not written are not given here. Glu‑DTPA‑Gd = N-terminal Glu-DTPA-Gd chelate (gadolinium DTPA complex on glutamic acid); Glu‑DTPA‑Gd″ = N-terminal chelate: Glu-DTPA-Gd (glutamic acid–DTPA gadolinium chelate); Glu‑DTPA‑Gd(3) = N-terminal gadolinium chelate Glu-DTPA-Gd; PEG(2O) = not defined here

First the molecules themselves.
B1: SEQ ID NO 195 (peptide)
peptide: WWGCRQGTGEHWSHCMWF
modifications: disulfide 4-15 (inferred); not fully specified (N-terminus, C-terminus); also: Gd chelated by DTPA at both ends
B2: SEQ ID NO 196 (peptide)
peptide: WWTCHMTWSGQWDSCKWH-NH2
modifications: disulfide 4-15 (inferred); not fully specified (N-terminus); also: Gd chelated by DTPA
B3: SEQ ID NO 162 (peptide)
peptide: YHACYQAGCWI[dW]
modifications: disulfide 4-9 (inferred); not fully specified (C-terminus); printed as YHACYQAGCWIw
notes: cyclic, disulfide

For the first experiment, the target named is T1, human collagen type I, acid soluble, extracted from placenta (Sigma C7774) (human, UniProt P02452 162-1218; P08123 80-1119).
T1 construct: tissue extract, gelled and dried in wells; also called dried human collagen; h-Collagen
T1 sequence (P02452 162-1218 limits assumed, chain 1 of 2): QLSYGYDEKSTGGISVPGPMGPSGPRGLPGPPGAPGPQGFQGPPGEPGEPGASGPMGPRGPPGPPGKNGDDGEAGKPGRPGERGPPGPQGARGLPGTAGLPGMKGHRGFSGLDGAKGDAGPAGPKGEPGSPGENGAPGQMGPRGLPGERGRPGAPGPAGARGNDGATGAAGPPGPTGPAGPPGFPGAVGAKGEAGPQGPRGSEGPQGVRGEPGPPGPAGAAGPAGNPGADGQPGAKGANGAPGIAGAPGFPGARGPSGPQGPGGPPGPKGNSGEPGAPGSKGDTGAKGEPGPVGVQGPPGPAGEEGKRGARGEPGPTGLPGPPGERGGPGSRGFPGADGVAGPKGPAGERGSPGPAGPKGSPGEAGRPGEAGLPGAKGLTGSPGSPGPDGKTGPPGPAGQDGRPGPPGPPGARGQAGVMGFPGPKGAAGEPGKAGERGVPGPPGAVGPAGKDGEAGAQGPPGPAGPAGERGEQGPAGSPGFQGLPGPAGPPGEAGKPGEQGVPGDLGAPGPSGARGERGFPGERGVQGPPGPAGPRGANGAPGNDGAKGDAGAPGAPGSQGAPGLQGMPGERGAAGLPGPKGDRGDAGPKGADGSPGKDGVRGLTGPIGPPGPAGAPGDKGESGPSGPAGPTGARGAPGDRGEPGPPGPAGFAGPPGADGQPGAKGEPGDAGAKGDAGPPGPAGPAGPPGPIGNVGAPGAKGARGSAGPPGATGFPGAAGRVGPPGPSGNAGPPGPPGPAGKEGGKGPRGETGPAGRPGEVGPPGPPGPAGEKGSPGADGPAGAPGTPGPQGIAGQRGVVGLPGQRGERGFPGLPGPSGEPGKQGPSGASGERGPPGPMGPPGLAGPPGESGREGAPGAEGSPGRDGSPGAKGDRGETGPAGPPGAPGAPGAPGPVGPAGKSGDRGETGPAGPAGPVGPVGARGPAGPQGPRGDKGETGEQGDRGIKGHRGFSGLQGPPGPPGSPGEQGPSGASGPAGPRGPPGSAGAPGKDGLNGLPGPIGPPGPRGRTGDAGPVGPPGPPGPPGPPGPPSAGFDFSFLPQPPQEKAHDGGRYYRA
T1 sequence (P08123 80-1119 limits assumed, chain 2 of 2): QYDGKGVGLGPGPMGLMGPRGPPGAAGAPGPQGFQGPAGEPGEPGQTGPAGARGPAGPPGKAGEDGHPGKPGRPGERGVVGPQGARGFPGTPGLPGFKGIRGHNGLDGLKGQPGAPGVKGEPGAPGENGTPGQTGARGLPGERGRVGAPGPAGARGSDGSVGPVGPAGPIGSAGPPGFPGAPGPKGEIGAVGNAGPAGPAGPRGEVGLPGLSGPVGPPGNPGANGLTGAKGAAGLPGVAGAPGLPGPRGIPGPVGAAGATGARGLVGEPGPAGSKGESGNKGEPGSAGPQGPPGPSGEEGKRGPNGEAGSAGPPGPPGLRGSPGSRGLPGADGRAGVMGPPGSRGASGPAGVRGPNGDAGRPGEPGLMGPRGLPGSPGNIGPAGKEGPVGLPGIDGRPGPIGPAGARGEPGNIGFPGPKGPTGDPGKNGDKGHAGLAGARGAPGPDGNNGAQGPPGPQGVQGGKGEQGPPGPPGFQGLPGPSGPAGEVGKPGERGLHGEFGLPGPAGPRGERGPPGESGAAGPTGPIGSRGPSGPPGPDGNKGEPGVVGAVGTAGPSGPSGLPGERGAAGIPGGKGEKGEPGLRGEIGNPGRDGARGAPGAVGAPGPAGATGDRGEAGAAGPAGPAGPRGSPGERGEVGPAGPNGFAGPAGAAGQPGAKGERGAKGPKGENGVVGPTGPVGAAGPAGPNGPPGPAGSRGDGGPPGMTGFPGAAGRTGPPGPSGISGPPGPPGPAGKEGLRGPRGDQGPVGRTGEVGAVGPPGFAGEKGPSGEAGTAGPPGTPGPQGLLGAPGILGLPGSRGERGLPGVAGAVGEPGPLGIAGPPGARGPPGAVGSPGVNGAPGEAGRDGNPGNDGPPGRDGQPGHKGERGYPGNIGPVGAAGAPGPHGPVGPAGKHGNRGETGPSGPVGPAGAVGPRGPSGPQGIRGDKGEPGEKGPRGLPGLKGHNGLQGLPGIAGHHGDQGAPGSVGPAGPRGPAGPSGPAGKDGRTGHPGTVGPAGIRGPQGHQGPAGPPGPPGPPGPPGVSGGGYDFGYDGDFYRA
Description: % binding to collagen I.
On to {Glu‑DTPA‑Gd″-PEG(2O)}-GQWTCSGDEYTWHCNY[dE]-NH2 (disulfide 5-14 (inferred); reading uncertain, linker -PEG(2O)-G- on the N-terminus) [Compound ID 1026], for which the “% bound” value came out at 28%. Turning to B1, the “% bound” value is 16%. Still for that read-out and setting: the figure for {Glu‑DTPA‑Gd}-WWTCHMTWSGQWDSCKWH-NH2 (disulfide 4-15 (inferred)) [Compound ID 1020] is 60%; for {Glu‑DTPA‑Gd″}-GGDWTCVGDHKTWKCNFH-NH2 (disulfide 6-15 (inferred), N-terminal G-G linker) [Compound ID 1023] it is 14%.

Consider {Glu‑DTPA‑Gd(3)}-PPQWHCTTRFPHHYCLYG-NH2 (disulfide 6-15 (inferred), N-terminal P-P linker) [Compound ID 1024], for which the “% bound” value was found to be 70%.

Turning to {Glu‑DTPA‑Gd}-GQWHCTTRFPHHYCLYG (disulfide 5-14 (inferred); not fully specified (C-terminus), N-terminal G linker) [Compound ID 1022], the “% bound” value stood at 36%. The same measure, in the same setting: the figure for B2 is 60%; for {Glu‑DTPA‑Gd}-GQWTCSGDEYTWHCNYE (disulfide 5-14 (inferred); not fully specified (C-terminus), N-terminal G linker) [Compound ID 1021] it is 48%.

The target of a further experiment is T2, rat collagen, acid soluble, type I, rat tail (Upstate 08-115) (rat, UniProt P02454 152-1207; P02466 86-1125).
T2 construct: tissue extract, gelled and dried in wells; also called dried rat collagen
T2 sequence (P02454 152-1207, chain 1 of 2): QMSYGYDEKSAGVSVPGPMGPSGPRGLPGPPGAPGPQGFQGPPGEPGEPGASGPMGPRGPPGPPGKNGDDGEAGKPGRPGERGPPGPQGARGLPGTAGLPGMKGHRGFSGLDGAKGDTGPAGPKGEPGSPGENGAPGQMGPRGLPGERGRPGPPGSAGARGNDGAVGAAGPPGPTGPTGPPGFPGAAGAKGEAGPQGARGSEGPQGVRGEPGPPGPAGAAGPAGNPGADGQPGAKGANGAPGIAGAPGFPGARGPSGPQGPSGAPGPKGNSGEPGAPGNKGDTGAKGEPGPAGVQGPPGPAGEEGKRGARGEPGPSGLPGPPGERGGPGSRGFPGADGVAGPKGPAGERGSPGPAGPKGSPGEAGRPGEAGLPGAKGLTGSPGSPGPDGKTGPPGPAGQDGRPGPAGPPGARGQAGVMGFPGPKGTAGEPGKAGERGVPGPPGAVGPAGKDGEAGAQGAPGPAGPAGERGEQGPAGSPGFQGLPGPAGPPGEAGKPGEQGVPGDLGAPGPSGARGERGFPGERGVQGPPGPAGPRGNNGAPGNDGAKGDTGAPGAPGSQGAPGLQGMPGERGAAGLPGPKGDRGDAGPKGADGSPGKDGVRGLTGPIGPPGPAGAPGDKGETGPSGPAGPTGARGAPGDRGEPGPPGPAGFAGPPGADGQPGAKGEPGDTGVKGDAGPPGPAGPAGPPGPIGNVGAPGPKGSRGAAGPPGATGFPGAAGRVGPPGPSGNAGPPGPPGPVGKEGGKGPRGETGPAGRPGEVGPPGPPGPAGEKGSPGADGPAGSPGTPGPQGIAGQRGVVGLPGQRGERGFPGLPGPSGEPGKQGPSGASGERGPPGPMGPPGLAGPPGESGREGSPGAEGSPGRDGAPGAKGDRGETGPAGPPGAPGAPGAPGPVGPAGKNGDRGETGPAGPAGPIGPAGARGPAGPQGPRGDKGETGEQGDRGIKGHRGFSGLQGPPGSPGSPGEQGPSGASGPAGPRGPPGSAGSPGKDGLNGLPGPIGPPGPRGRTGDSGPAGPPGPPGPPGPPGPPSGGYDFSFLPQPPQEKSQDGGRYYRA
T2 sequence (P02466 86-1125, chain 2 of 2): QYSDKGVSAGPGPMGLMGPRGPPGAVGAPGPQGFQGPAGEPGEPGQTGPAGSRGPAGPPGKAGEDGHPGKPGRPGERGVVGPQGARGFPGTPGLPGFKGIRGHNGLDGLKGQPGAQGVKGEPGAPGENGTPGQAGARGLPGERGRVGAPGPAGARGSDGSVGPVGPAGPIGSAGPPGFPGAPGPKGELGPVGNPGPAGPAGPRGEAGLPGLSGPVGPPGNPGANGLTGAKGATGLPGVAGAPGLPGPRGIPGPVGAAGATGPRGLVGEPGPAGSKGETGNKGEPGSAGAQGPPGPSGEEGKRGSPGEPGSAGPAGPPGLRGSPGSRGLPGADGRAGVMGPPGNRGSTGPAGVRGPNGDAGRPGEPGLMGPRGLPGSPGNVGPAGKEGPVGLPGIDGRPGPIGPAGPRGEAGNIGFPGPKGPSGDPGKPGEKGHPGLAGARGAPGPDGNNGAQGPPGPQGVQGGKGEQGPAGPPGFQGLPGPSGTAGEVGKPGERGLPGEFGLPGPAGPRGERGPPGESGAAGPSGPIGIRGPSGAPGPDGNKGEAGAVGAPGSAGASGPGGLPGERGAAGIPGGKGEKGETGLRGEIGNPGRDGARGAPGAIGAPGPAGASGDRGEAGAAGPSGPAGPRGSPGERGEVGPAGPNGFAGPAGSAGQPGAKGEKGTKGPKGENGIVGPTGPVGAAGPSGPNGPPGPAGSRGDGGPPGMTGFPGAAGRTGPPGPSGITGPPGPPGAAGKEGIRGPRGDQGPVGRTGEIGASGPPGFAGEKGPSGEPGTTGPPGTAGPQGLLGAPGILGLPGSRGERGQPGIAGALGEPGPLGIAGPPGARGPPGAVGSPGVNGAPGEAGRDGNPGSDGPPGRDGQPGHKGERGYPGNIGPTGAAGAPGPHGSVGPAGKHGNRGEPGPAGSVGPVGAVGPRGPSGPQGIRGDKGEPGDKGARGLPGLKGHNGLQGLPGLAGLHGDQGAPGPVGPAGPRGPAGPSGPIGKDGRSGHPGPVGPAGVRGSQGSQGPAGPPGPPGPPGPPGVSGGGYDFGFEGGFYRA
Description: % binding to collagen I.
Take B1: the “% bound” value was found to be 9%.

On to {Glu‑DTPA‑Gd}-WWTCHMTWSGQWDSCKWH-NH2 (disulfide 4-15 (inferred)) [Compound ID 1020], for which the “% bound” value worked out at 34%. The same measure, in the same setting: the figure for {Glu‑DTPA‑Gd″}-GGDWTCVGDHKTWKCNFH-NH2 (disulfide 6-15 (inferred), N-terminal G-G linker) [Compound ID 1023] is 12%; for {Glu‑DTPA‑Gd(3)}-PPQWHCTTRFPHHYCLYG-NH2 (disulfide 6-15 (inferred), N-terminal P-P linker) [Compound ID 1024] it is 55%. Same read-out and setting: the figure for {Glu‑DTPA‑Gd}-GQWHCTTRFPHHYCLYG (disulfide 5-14 (inferred); not fully specified (C-terminus), N-terminal G linker) [Compound ID 1022] is 38%. Turning to B2, the “% bound” value is 34%. The same measure, in the same setting: the figure for {Glu‑DTPA‑Gd}-GQWTCSGDEYTWHCNYE (disulfide 5-14 (inferred); not fully specified (C-terminus), N-terminal G linker) [Compound ID 1021] is 13%.

The next experiment addresses T1, human collagen type I, acid soluble, …. The experiment is described as follows: dried collagen assay. As to the method:
(§1) An additional 90 μL is reserved in a HPLC glass vial as a measure of the total concentration.
On to B3, for which the “% bound” value worked out at 18%.

Another experiment addresses T2, rat collagen, acid soluble, type I, rat …. The experiment is described as follows: dried collagen assay. Here is the method: as §1
With B3, the “% bound” value is 14%.
